Experimental data taken from article PMC3691886.

How the values were obtained:
[1] = target: bovine α-chymotrypsin (bovine)
[2] = target: α1-antitrypsin reactive loop mutant P2P1′ (P357D, S359D) on the C232S background (UniProt P01009); test: FRET or BRET; heat-induced polymerization at 50°C; 0.1 mg/ml protein in 10 mM Na2HPO4/NaH2PO4, 0.1 M NaCl, 0.1% PEG8K, pH 7.4; 2-8 μM ATTO-550-Ni-NTA and ATTO-647N-Ni-NTA on the His tag; apparent rate, corrected to zero dye; monomer to polymer
[3] = target: α1-antitrypsin reactive loop mutant P2P1′ (P357D, S359D) on the C232S background (UniProt P01009); test: FRET or BRET; heat-induced polymerization at 55°C; 0.1 mg/ml protein in 10 mM Na2HPO4/NaH2PO4, 0.1 M NaCl, 0.1% PEG8K, pH 7.4; 2-8 μM ATTO-550-Ni-NTA and ATTO-647N-Ni-NTA on the His tag; apparent rate, corrected to zero dye; monomer to polymer
[4] = target: α1-antitrypsin reactive loop mutant P2P1′ (P357D, S359D) on the C232S background (UniProt P01009); test: FRET or BRET; heat-induced polymerization at 60°C; 0.1 mg/ml protein in 10 mM Na2HPO4/NaH2PO4, 0.1 M NaCl, 0.1% PEG8K, pH 7.4; 2-8 μM ATTO-550-Ni-NTA and ATTO-647N-Ni-NTA on the His tag; apparent rate, corrected to zero dye; monomer to polymer
[5] = target: α1-antitrypsin reactive loop mutant P4 (A355D) on the C232S background (UniProt P01009); test: FRET or BRET; heat-induced polymerization at 50°C; 0.1 mg/ml protein in 10 mM Na2HPO4/NaH2PO4, 0.1 M NaCl, 0.1% PEG8K, pH 7.4; 2-8 μM ATTO-550-Ni-NTA and ATTO-647N-Ni-NTA on the His tag; apparent rate, corrected to zero dye; monomer to polymer
[6] = target: α1-antitrypsin reactive loop mutant P4 (A355D) on the C232S background (UniProt P01009); test: FRET or BRET; heat-induced polymerization at 55°C; 0.1 mg/ml protein in 10 mM Na2HPO4/NaH2PO4, 0.1 M NaCl, 0.1% PEG8K, pH 7.4; 2-8 μM ATTO-550-Ni-NTA and ATTO-647N-Ni-NTA on the His tag; apparent rate, corrected to zero dye; monomer to polymer
[7] = target: α1-antitrypsin reactive loop mutant P4 (A355D) on the C232S background (UniProt P01009); test: FRET or BRET; heat-induced polymerization at 60°C; 0.1 mg/ml protein in 10 mM Na2HPO4/NaH2PO4, 0.1 M NaCl, 0.1% PEG8K, pH 7.4; 2-8 μM ATTO-550-Ni-NTA and ATTO-647N-Ni-NTA on the His tag; apparent rate, corrected to zero dye; monomer to polymer
[8] = target: α1-antitrypsin reactive loop mutant P14P12 (T345D, A347D) on the C232S background (UniProt P01009); test: FRET or BRET; heat-induced polymerization at 50°C; 0.1 mg/ml protein in 10 mM Na2HPO4/NaH2PO4, 0.1 M NaCl, 0.1% PEG8K, pH 7.4; 2-8 μM ATTO-550-Ni-NTA and ATTO-647N-Ni-NTA on the His tag; apparent rate, corrected to zero dye; monomer to polymer
[9] = target: α1-antitrypsin reactive loop mutant P14P12 (T345D, A347D) on the C232S background (UniProt P01009); test: FRET or BRET; heat-induced polymerization at 55°C; 0.1 mg/ml protein in 10 mM Na2HPO4/NaH2PO4, 0.1 M NaCl, 0.1% PEG8K, pH 7.4; 2-8 μM ATTO-550-Ni-NTA and ATTO-647N-Ni-NTA on the His tag; apparent rate, corrected to zero dye; monomer to polymer
[10] = target: α1-antitrypsin reactive loop mutant P14P12 (T345D, A347D) on the C232S background (UniProt P01009); test: FRET or BRET; heat-induced polymerization at 60°C; 0.1 mg/ml protein in 10 mM Na2HPO4/NaH2PO4, 0.1 M NaCl, 0.1% PEG8K, pH 7.4; 2-8 μM ATTO-550-Ni-NTA and ATTO-647N-Ni-NTA on the His tag; apparent rate, corrected to zero dye; monomer to polymer
[11] = target: bovine α-chymotrypsin (bovine); test: enzyme inhibition progress curves; pseudo-first-order conditions, 4 h at 25°C, 5-600 nM inhibitor, 200 μM substrate, 0.5 nM bovine α-chymotrypsin
[12] = target: recombinant α1-antitrypsin, M allele with the C232S mutation (AT_(C232S)) (UniProt P01009); test: FRET or BRET; heat-induced polymerization at 50°C; 0.1 mg/ml protein in 10 mM Na2HPO4/NaH2PO4, 0.1 M NaCl, 0.1% PEG8K, pH 7.4; 2-8 μM ATTO-550-Ni-NTA and ATTO-647N-Ni-NTA on the His tag; apparent rate, corrected to zero dye; monomer to polymer
[13] = target: recombinant α1-antitrypsin, M allele with the C232S mutation (AT_(C232S)) (UniProt P01009); test: FRET or BRET; heat-induced polymerization at 55°C; 0.1 mg/ml protein in 10 mM Na2HPO4/NaH2PO4, 0.1 M NaCl, 0.1% PEG8K, pH 7.4; 2-8 μM ATTO-550-Ni-NTA and ATTO-647N-Ni-NTA on the His tag; apparent rate, corrected to zero dye; monomer to polymer
[14] = target: recombinant α1-antitrypsin, M allele with the C232S mutation (AT_(C232S)) (UniProt P01009); test: FRET or BRET; heat-induced polymerization at 60°C; 0.1 mg/ml protein in 10 mM Na2HPO4/NaH2PO4, 0.1 M NaCl, 0.1% PEG8K, pH 7.4; 2-8 μM ATTO-550-Ni-NTA and ATTO-647N-Ni-NTA on the His tag; apparent rate, corrected to zero dye; monomer to polymer
[15] = target: α1-antitrypsin reactive loop mutant P6 (L353D) on the C232S background (UniProt P01009); test: FRET or BRET; heat-induced polymerization at 50°C; 0.1 mg/ml protein in 10 mM Na2HPO4/NaH2PO4, 0.1 M NaCl, 0.1% PEG8K, pH 7.4; 2-8 μM ATTO-550-Ni-NTA and ATTO-647N-Ni-NTA on the His tag; apparent rate, corrected to zero dye; monomer to polymer
[16] = target: α1-antitrypsin reactive loop mutant P6 (L353D) on the C232S background (UniProt P01009); test: FRET or BRET; heat-induced polymerization at 55°C; 0.1 mg/ml protein in 10 mM Na2HPO4/NaH2PO4, 0.1 M NaCl, 0.1% PEG8K, pH 7.4; 2-8 μM ATTO-550-Ni-NTA and ATTO-647N-Ni-NTA on the His tag; apparent rate, corrected to zero dye; monomer to polymer
[17] = target: α1-antitrypsin reactive loop mutant P6 (L353D) on the C232S background (UniProt P01009); test: FRET or BRET; heat-induced polymerization at 60°C; 0.1 mg/ml protein in 10 mM Na2HPO4/NaH2PO4, 0.1 M NaCl, 0.1% PEG8K, pH 7.4; 2-8 μM ATTO-550-Ni-NTA and ATTO-647N-Ni-NTA on the His tag; apparent rate, corrected to zero dye; monomer to polymer
[18] = target: α1-antitrypsin reactive loop mutant P10P8 (G349D, M351D) on the C232S background (UniProt P01009); test: FRET or BRET; heat-induced polymerization at 50°C; 0.1 mg/ml protein in 10 mM Na2HPO4/NaH2PO4, 0.1 M NaCl, 0.1% PEG8K, pH 7.4; 2-8 μM ATTO-550-Ni-NTA and ATTO-647N-Ni-NTA on the His tag; apparent rate, corrected to zero dye; monomer to polymer
[19] = target: α1-antitrypsin reactive loop mutant P10P8 (G349D, M351D) on the C232S background (UniProt P01009); test: FRET or BRET; heat-induced polymerization at 55°C; 0.1 mg/ml protein in 10 mM Na2HPO4/NaH2PO4, 0.1 M NaCl, 0.1% PEG8K, pH 7.4; 2-8 μM ATTO-550-Ni-NTA and ATTO-647N-Ni-NTA on the His tag; apparent rate, corrected to zero dye; monomer to polymer
[20] = target: α1-antitrypsin reactive loop mutant P10P8 (G349D, M351D) on the C232S background (UniProt P01009); test: FRET or BRET; heat-induced polymerization at 60°C; 0.1 mg/ml protein in 10 mM Na2HPO4/NaH2PO4, 0.1 M NaCl, 0.1% PEG8K, pH 7.4; 2-8 μM ATTO-550-Ni-NTA and ATTO-647N-Ni-NTA on the His tag; apparent rate, corrected to zero dye; monomer to polymer
[21] = target: α1-antitrypsin reactive loop mutant P6P4 (L353D, A355D) on the C232S background (UniProt P01009); test: FRET or BRET; heat-induced polymerization at 50°C; 0.1 mg/ml protein in 10 mM Na2HPO4/NaH2PO4, 0.1 M NaCl, 0.1% PEG8K, pH 7.4; 2-8 μM ATTO-550-Ni-NTA and ATTO-647N-Ni-NTA on the His tag; apparent rate, corrected to zero dye; monomer to polymer
[22] = target: α1-antitrypsin reactive loop mutant P6P4 (L353D, A355D) on the C232S background (UniProt P01009); test: FRET or BRET; heat-induced polymerization at 55°C; 0.1 mg/ml protein in 10 mM Na2HPO4/NaH2PO4, 0.1 M NaCl, 0.1% PEG8K, pH 7.4; 2-8 μM ATTO-550-Ni-NTA and ATTO-647N-Ni-NTA on the His tag; apparent rate, corrected to zero dye; monomer to polymer
[23] = target: α1-antitrypsin reactive loop mutant P6P4 (L353D, A355D) on the C232S background (UniProt P01009); test: FRET or BRET; heat-induced polymerization at 60°C; 0.1 mg/ml protein in 10 mM Na2HPO4/NaH2PO4, 0.1 M NaCl, 0.1% PEG8K, pH 7.4; 2-8 μM ATTO-550-Ni-NTA and ATTO-647N-Ni-NTA on the His tag; apparent rate, corrected to zero dye; monomer to polymer

α1-antitrypsin reactive loop mutant P2P1′ (P357D, S359D) on the C232S background (from UniProt P01009 26-418) (natural protein)
SI (stoichiometry of inhibition): residual activity of 0.5 μM bovine α-chymotrypsin after 30 min with inhibitor [1]: 100 | k (app,fr) (apparent rate of polymerization) [2]: 0.00022 s⁻¹ | k (app,fr) (apparent rate of polymerization) [3]: 0.0017 s⁻¹ | k (app,fr) (apparent rate of polymerization) [4]: 0.012 s⁻¹

α1-antitrypsin reactive loop mutant P4 (A355D) on the C232S background (from UniProt P01009 26-418) (natural protein)
k (app,fr) (apparent rate of polymerization) [5]: 0.00011 s⁻¹ | k (app,fr) (apparent rate of polymerization) [6]: 0.0011 s⁻¹ | k (app,fr) (apparent rate of polymerization) [7]: 0.078 s⁻¹

α1-antitrypsin reactive loop mutant P14P12 (T345D, A347D) on the C232S background (from UniProt P01009 26-418) (natural protein)
k (app,fr) (apparent rate of polymerization) [8]: 5.8e-05 s⁻¹ | k (app,fr) (apparent rate of polymerization) [9]: 0.00043 s⁻¹ | k (app,fr) (apparent rate of polymerization) [10]: 0.024 s⁻¹

recombinant α1-antitrypsin, M allele with the C232S mutation (AT_(C232S)) (from UniProt P01009 26-418) (natural protein)
SI (stoichiometry of inhibition): residual activity of 0.5 μM bovine α-chymotrypsin after 30 min with inhibitor [1]: 1.1 | kass•SI [11]: 1.5e+06 | kon [11]: 1.5e+06 M⁻¹ s⁻¹ | k (app,fr) (apparent rate of polymerization) [12]: 0.00021 s⁻¹ | k (app,fr) (apparent rate of polymerization) [13]: 0.0016 s⁻¹ | k (app,fr) (apparent rate of polymerization) [14]: 0.01 s⁻¹

α1-antitrypsin reactive loop mutant P6 (L353D) on the C232S background (from UniProt P01009 26-418) (natural protein)
k (app,fr) (apparent rate of polymerization) [15]: 3.7e-05 s⁻¹ | k (app,fr) (apparent rate of polymerization) [16]: 0.0007 s⁻¹ | k (app,fr) (apparent rate of polymerization) [17]: 0.01 s⁻¹

α1-antitrypsin reactive loop mutant P10P8 (G349D, M351D) on the C232S background (from UniProt P01009 26-418) (natural protein)
SI (stoichiometry of inhibition): residual activity of 0.5 μM bovine α-chymotrypsin after 30 min with inhibitor [1]: 4.56 | kass•SI [11]: 570000 | kon [11]: 120000 M⁻¹ s⁻¹ | k (app,fr) (apparent rate of polymerization) [18]: 7.2e-05 s⁻¹ | k (app,fr) (apparent rate of polymerization) [19]: 0.00066 s⁻¹ | k (app,fr) (apparent rate of polymerization) [20]: 0.0028 s⁻¹

α1-antitrypsin reactive loop mutant P6P4 (L353D, A355D) on the C232S background (from UniProt P01009 26-418) (natural protein)
SI (stoichiometry of inhibition): residual activity of 0.5 μM bovine α-chymotrypsin after 30 min with inhibitor [1]: 89 | k (app,fr) (apparent rate of polymerization) [21]: 9.8e-06 s⁻¹ | k (app,fr) (apparent rate of polymerization) [22]: 0.00044 s⁻¹ | k (app,fr) (apparent rate of polymerization) [23]: 0.0055 s⁻¹
